The record followed here is US12458630 (University of California, dated 2025).

Positions count from the first letter of the chain named. Names may count otherwise.

B1: endogenous VAMP8 of MIA PaCa-2 cells (other, human, UniProt Q9BV40 1-100, looked up)
chain: MEEASEGGGNDRVRNLQSEVEGVKNIMTQNVERILARGENLEHLRNKTEDLEATSEHFKTTSQKVARKFWWKNVKMIVLICVIVFIIILFIVLFATGAFS
B2: IKKα W651A-Flag (LIR-mutated IKKα) (enzyme)
chain: MERPPGLRPGAGGPWEMRERLGTGGFGNVCLYQHRELDLKIAIKSCRLELSTKNRERWCHEIQIMKKLNHANVVKACDVPEELNILIHDVPLLAMEYCSGGDLRKLLNKPENCCGLKESQILSLLSDIGSGIRYLHENKIIHRDLKPENIVLQDVGGKIIHKIIDLGYAKDVDQGSLCTSFVGTLQYLAPELFENKPYTATVDYWSFGTMVFECIAGYRPFLHHLQPFTWHEKIKKKDPKCIFACEEMSGEVRFSSHLPQPNSLCSLVVEPMENWLQLMLNWDPQQRGGPVDLTLKQPRCFVLMDHILNLKIVHILNMTSAKIISFLLPPDESLHSLQSRIERETGINTGSQELLSETGISLDPRKPASQCVLDGVRGCDSYMVYLFDKSKTVYEGPFASRSLSDCVNYIVQDSKIQLPIIQLRKVWAEAVHYVSGLKEDYSRLFQGQRAAMLSLLRYNANLTKMKNTLISASQQLKAKLEFFHKSIQLDLERYSEQMTYGISSEKMLKAWKEMEEKAIHYAEVGVIGYLEDQIMSLHAEIMELQKSPYGRRQGDLMESLEQRAIDLYKQLKHRPSDHSYSDSTEMVKIIVHTVQSQDRVLKELFGHLSKLLGCKQKIIDLLPKVEVALSNIKEADNTVMFMQGKRQKEIAHLLKIACTQSSARSLVGSSLEGAVTPQTSAWLPPTSAEHDHSLSCVVTPQDGETSAQMIEENLNCLGHLSTIIHEANEEQGNSMMNLDWSWLTE
notes: also called LIR-mutated IKKα variant; pCDH-CMV-MCS-EF1-Puro-IKKα W651A-Flag; not shown: Flag tag
B3: IKKα Y568A-Flag (LIR-mutated IKKα) (enzyme)
chain: B2 chain with Y568A, A651W
notes: also called LIR-mutated IKKα variant; pCDH-CMV-MCS-EF1-Puro-IKKα Y568A-Flag; not shown: Flag tag
B4: endogenous syntaxin 17 (STX17) of MIA PaCa-2 cells (other, human, UniProt P56962 2-302, looked up)
chain: SEDEEKVKLRRLEPAIQKFIKIVIPTDLERLRKHQINIEKYQRCRIWDKLHEEHINAGRTVQQLRSNIREIEKLCLKVRKDDLVLLKRMIDPVKEEASAATAEFLQLHLESVEELKKQFNDEETLLQPPLTRSMTVGGAFHTTEAEASSQSLTQIYALPEIPQDQNAAESWETLEADLIELSQLVTDFSLLVNSQQEKIDSIADHVNSAAVNVEEGTKNLGKAAKYKLAALPVAGALIGGMVGGPIGLLAGFKVAGIAAALGGGVLGFTGGKLIQRKKQKMMEKLTSSCPDLPSQTDKKCS
notes: also called endogenous STX17

The target in assay [1] is B4. Nature of the assay: co-IP with STX17, IKKα-ablated MIA PaCa-2 cells re-expressing wt IKKα (FIG. 14D).
Assay [2] concerns the target endogenous LC3 (microtubule-associated protein light chain 3) of MIA PaCa-2 cells (human, UniProt Q9GZQ8 1-120). Briefly: co-IP in starved IKKα-ablated MIA PaCa-2 cells (FIG. 14C).
Assay [3] deals with B3. The assay is described as above.
Assay [4] concerns the target B2. The assay is described as above.

Regarding B1, the binding result in assay [1] is “binds”.
Consider B2, for which, in assay [2], the binding result is “no binding”.
Take B3: the binding result in assay [2] is “no binding”.
Turning to B4, the binding result in assay [3] and in assay [4] was “no binding” throughout.
